Measured values from patent publication US20240117049A1 (Hoffmann-La Roche, published 2024).
Like-named read-outs stand apart in the source and are kept apart here.

Key:
human OX40 on cells [1] = biological target: T1, human OX40 on cells (human, UniProt P43489 29-277); assay: cell-based or functional assay
T1 sequence: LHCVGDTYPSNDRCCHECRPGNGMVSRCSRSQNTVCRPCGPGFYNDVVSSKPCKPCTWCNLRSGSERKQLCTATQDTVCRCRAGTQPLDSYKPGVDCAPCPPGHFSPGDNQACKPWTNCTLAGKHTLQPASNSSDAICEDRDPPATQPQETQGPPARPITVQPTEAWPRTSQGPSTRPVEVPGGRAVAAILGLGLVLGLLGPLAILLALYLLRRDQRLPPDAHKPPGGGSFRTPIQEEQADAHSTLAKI

human OX40 on cells [2] = biological target: T1, human OX40 on cells; assay: cell-based or functional assay; remark: listed apart in the source
[3] = biological target: T2, human Fibroblast Activation Protein (FAP) expressed on cells (human, UniProt Q12884 1-760); assay: flow cytometry, NIH/3T3-huFAP clone 19 cells
T2 construct: cell surface FAP on transfected HEK cells or NIH/3T3-huFAP clone 19 fibroblasts; also called huFAP; human FAP-transfected HEK cells

human OX40 on cells [4] = biological target: T1, human OX40 on cells; assay: flow cytometry, activated human CD4+ T cells
[5] = biological target: T3, FcRn (biotinylated, coupled to streptavidin-sepharose); assay: FcRn affinity chromatography, pH gradient, retention compared to standards
T3 construct: also called neonatal Fc receptor

[6] = biological target: T4, biotinylated recombinant human FAP (human, UniProt Q12884 27-760, biotinylated); assay: SPR, stressed against unstressed sample, normalised to anti-hu IgG capture
T4 construct: the Biacore paragraphs only say biotinylated (recombinant) human FAP; also called biotinylated human FAP; recombinant huFAP

biotinylated human OX40 = biological target: T5, biotinylated human OX40 (human, UniProt P43489 29-214, limits assumed, biotinylated); assay: as above
T5 sequence: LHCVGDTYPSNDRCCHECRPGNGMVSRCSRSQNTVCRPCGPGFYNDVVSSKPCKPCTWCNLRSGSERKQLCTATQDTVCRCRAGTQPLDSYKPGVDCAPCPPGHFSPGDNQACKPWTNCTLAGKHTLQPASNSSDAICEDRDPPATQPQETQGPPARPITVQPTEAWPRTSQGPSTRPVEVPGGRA

human OX40 on cells [7] = biological target: T1, human OX40 on cells; assay: flow cytometry, activated human PBMC gated on CD8+ T cells (OX40 positive), FITC anti-human Fcγ secondary, MFI baseline corrected
human OX40 on cells [8] = biological target: T1, human OX40 on cells; assay: cell-based or functional assay; remark: listed apart in the source
human OX40 on cells [9] = biological target: T1, human OX40 on cells; assay: cell-based or functional assay; remark: listed apart in the source
human OX40 on cells [10] = biological target: T1, human OX40 on cells; assay: cell-based or functional assay; remark: listed apart in the source
human OX40 on cells [11] = biological target: T1, human OX40 on cells; assay: cell-based or functional assay; remark: listed apart in the source
[12] = biological target: T4, biotinylated recombinant human FAP; assay: SPR (Biacore), biotinylated recombinant FAP
[13] = biological target: T4, biotinylated recombinant human FAP; assay: SPR (Biacore), biotinylated huFAP on CAP chip, Fab as analyte, 1:1 fit
[14] = biological target: T2, human Fibroblast Activation Protein …; assay: flow cytometry, FAP-transfected HEK cells
[15] = biological target: biotinylated recombinant cynomolgus FAP (cynomolgus, UniProt Q12884 27-760 (human entry), limits assumed, biotinylated); assay: SPR (Biacore), biotinylated recombinant FAP
[16] = biological target: T6, cynomolgus FAP expressed on cells (cynomolgus); assay: flow cytometry, FAP-transfected HEK cells
T6 construct: whole, on cells

[17] = biological target: T2, human Fibroblast Activation Protein …; assay: flow cytometry, human FAP-transfected HEK cells
[18] = biological target: T7, human DPP-IV expressed on transfected HEK cells (human, UniProt P27487 1-766); assay: flow cytometry, human DPPIV-transfected HEK cells
T7 construct: whole, on cells; also called dipeptidyl peptidase IV
T7 sequence (P27487 whole entry): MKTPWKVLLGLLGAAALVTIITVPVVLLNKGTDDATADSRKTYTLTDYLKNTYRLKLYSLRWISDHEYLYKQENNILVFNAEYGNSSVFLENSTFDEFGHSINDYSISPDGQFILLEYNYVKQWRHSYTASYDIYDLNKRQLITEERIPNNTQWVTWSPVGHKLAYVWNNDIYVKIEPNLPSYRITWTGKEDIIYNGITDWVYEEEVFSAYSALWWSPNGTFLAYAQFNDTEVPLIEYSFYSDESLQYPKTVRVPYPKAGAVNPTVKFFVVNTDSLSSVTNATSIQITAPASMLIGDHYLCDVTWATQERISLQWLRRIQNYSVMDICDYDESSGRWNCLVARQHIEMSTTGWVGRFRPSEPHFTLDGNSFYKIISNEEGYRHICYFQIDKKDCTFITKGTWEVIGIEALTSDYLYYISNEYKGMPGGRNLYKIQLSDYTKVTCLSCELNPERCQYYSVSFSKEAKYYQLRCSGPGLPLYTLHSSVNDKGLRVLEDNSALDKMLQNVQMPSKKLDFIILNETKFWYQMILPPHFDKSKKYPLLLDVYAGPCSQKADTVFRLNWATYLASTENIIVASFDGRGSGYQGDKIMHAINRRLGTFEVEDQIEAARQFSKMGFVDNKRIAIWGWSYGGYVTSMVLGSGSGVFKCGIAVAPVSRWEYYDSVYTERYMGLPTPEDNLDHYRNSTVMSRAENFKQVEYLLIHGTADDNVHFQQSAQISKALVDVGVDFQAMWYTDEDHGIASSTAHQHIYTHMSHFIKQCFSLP

T3 sequence (P55899 24-297, chain 1 of 2): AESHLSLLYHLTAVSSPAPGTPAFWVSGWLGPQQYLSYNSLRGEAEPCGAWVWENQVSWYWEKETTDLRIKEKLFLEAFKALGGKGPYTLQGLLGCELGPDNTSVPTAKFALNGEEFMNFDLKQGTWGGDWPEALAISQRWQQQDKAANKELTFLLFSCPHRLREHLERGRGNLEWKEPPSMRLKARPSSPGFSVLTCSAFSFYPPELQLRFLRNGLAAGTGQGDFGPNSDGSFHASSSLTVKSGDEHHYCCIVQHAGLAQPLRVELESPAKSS
T3 sequence (P61769 21-119, chain 2 of 2, further chain): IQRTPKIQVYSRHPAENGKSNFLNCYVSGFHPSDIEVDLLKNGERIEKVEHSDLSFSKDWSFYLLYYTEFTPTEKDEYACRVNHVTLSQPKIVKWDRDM

B1: P1AE8874 OX40(CLC563) x FAP (1G1a) (3 + 1) C-terminal crossfab fusion (bispecific antibody, human IgG1, kappa, L234A L235A)
heavy 1: not shown
heavy 2: not shown
light 1: not shown
light 2: EIVLTQSPATLSLSPGERATLSCRASESVDNYGLSFINWFQQKPGQAPRLLIYGTSNRGSGIPARFSGSGSGTDFTLTISSLEPEDFAVYFCQQSNEVPYTFGGGTKVEIKSSASTKGPSVFPLAPSSKSTSGGTAALGCLVKDYFPEPVTVSWNSGALTSGVHTFPAVLQSSGLYSLSSVVTVPSSSLGTQTYICNVNHKPSNTKVDKKVEPKSC
notes: also called CLC-563 3+1
EC50 of NFκB activation, HeLa_hOx40_NFkB_Luc1, w/ hu FAP+ fibroblasts (human OX40 on cells [1]): 0.24 nM
EC50 of NFκB activation, HeLa_hOx40_NFkB_Luc1, w/o crosslinking (human OX40 on cells [1]): 0.79 nM
AUC of CD25 upregulation compared to reference compound [%] (human OX40 on cells [2]): 100%
EC50 of CD25 upregulation on CD4+ T cells, suboptimal TCR stimulation of human PBMC with FAP+ fibroblasts (human OX40 on cells [2]): 0.04 nM
EC50 [3]: 2.52 nM
EC50 (human OX40 on cells [4]): 3.62 nM
FcRn affinity (relative retention) [5]: -0.14
binding activity [%] after 2 weeks at pH 6.0/40°C [6]: > 90%
binding activity [%] after 2 weeks at pH 7.4/37°C [6]: > 90%
binding activity [%] after 2 weeks at pH 6.0/40°C (biotinylated human OX40): > 90%
binding activity [%] after 2 weeks at pH 7.4/37°C (biotinylated human OX40): > 90%
EC50 (read off the curve) (human OX40 on cells [7]): ~3 nM

B2: P1AE8871 OX40(CLC563) x FAP (1G1a) (2 + 1) C-terminal crossfab fusion (bispecific antibody, human IgG1, kappa, L234A L235A)
heavy 1: not shown
heavy 2: not shown
light 1: not shown
light 2: EIVLTQSPATLSLSPGERATLSCRASESVDNYGLSFINWFQQKPGQAPRLLIYGTSNRGSGIPARFSGSGSGTDFTLTISSLEPEDFAVYFCQQSNEVPYTFGGGTKVEIKSSASTKGPSVFPLAPSSKSTSGGTAALGCLVKDYFPEPVTVSWNSGALTSGVHTFPAVLQSSGLYSLSSVVTVPSSSLGTQTYICNVNHKPSNTKVDKKVEPKSC
notes: also called CLC-563 2+1
EC50 of NFκB activation, HeLa_hOx40_NFkB_Luc1, w/ hu FAP+ fibroblasts (human OX40 on cells [1]): 0.21 nM
AUC of CD25 upregulation compared to reference compound [%] (human OX40 on cells [2]): 99%
EC50 of CD25 upregulation on CD4+ T cells, suboptimal TCR stimulation of human PBMC with FAP+ fibroblasts (human OX40 on cells [2]): 0.06 nM
EC50 [3]: 2.51 nM
EC50 (human OX40 on cells [4]): 3.19 nM
EC50 (read off the curve) (human OX40 on cells [7]): ~2 nM

B3: P1AF6454 OX40(CLC563) x FAP (1G1a_EPKSCD) (3 + 1) C-terminal crossfab fusion (bispecific antibody, human IgG1, kappa, L234A L235A)
heavy 1: not shown
heavy 2: not shown
light 1: not shown
light 2: EIVLTQSPATLSLSPGERATLSCRASESVDNYGLSFINWFQQKPGQAPRLLIYGTSNRGSGIPARFSGSGSGTDFTLTISSLEPEDFAVYFCQQSNEVPYTFGGGTKVEIKSSASTKGPSVFPLAPSSKSTSGGTAALGCLVKDYFPEPVTVSWNSGALTSGVHTFPAVLQSSGLYSLSSVVTVPSSSLGTQTYICNVNHKPSNTKVDKKVEPKSCD
notes: also called CLC-563, D-variant 3+1; 3+1 CLC563/H212-D
EC50 of NFκB activation, HeLa_hOx40_NFkB_Luc1, w/ hu FAP+ fibroblasts (human OX40 on cells [8]): 0.2 nM
EC50 of NFκB activation, HeLa_hOx40_NFkB_Luc1, w/o crosslinking (human OX40 on cells [8]): 1.9 nM
EC50 of CD25 upregulation on CD4+ T cells, suboptimal TCR stimulation of human PBMC with FAP+ fibroblasts (human OX40 on cells [9]): 0.001 nM
EC50 of increased CEACAM5 TCB mediated cytokine secretion of human PBMC with FAP+ fibroblasts (human OX40 on cells [10]): 0.144 nM
EC50 of suppression of TGFβ-induced FoxP3 (FoxP3 MFI) on CD4+ CD25+ Treg cells, FAP-coated beads (human OX40 on cells [11]): 0.11 nM
EC50 [3]: 1.22 nM
EC50 (human OX40 on cells [4]): 1.64 nM
FcRn affinity (relative retention) [5]: -0.1
binding activity [%] after 2 weeks at pH 6.0/40°C [6]: 99%
binding activity [%] after 2 weeks at pH 7.4/37°C [6]: 95%
binding activity [%] after 2 weeks at pH 6.0/40°C (biotinylated human OX40): 100%
binding activity [%] after 2 weeks at pH 7.4/37°C (biotinylated human OX40): 99%

B4: P1AD9438_Fab, anti-FAP clone 212 Fab (Fab, V domains shown)
VH: EVLLQQSGPELVKPGASVKIACKASGYTLTDYNMDWVRQSHGKSLEWIGDIYPNTGGTIYNQKFKGKATLTIDKSSSTAYMDLRSLTSEDTAVYYCTRFRGIHYAMDYWGQGTSVTVSS
VL: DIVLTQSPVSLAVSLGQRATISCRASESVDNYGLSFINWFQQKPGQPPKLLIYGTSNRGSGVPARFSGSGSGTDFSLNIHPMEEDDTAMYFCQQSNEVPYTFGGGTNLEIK
notes: Fab; also called 212 free Fab
Kd [12]: 0.12 nM
Kd [13]: < 0.01 nM
koff [13]: < 1e-06 s⁻¹
kon [13]: 1.06e+06 M⁻¹ s⁻¹

B5: anti-FAP clone 212, C-terminal Fab fusion construct (Fc fusion)
chain 1: EVLLQQSGPELVKPGASVKIACKASGYTLTDYNMDWVRQSHGKSLEWIGDIYPNTGGTIYNQKFKGKATLTIDKSSSTAYMDLRSLTSEDTAVYYCTRFRGIHYAMDYWGQGTSVTVSS
chain 2: not shown
EC50 [14]: 2.8 µg/mL
Kd [12]: 0.62 nM
Kd [15]: 0.64 nM

B6: P1AD9438, anti-FAP clone 212 as huIgG1 P329G LALA antibody (antibody, V domains shown)
VH: EVLLQQSGPELVKPGASVKIACKASGYTLTDYNMDWVRQSHGKSLEWIGDIYPNTGGTIYNQKFKGKATLTIDKSSSTAYMDLRSLTSEDTAVYYCTRFRGIHYAMDYWGQGTSVTVSS
VL: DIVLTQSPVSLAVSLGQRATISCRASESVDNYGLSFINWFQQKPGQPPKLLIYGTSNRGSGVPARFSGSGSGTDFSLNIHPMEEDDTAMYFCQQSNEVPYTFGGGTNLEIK
notes: human IgG1 with P329G, L234A, L235A; also called 212 IgG
EC50 [14]: 0.12 µg/mL
EC50 [16]: 0.3 µg/mL
Kd [15]: 0.14 nM
EC50 [17]: 0.118 µg/mL

B7: anti-FAP antibody 4B9 (antibody, V domains shown)
VH: EVQLLESGGGLVQPGGSLRLSCAASGFTFSSYAMSWVRQAPGKGLEWVSAIIGSGASTYYADSVKGRFTISRDNSKNTLYLQMNSLRAEDTAVYYCAKGWFGGFNYWGQGTLVTVSS
VL: EIVLTQSPGTLSLSPGERATLSCRASQSVTSSYLAWYQQKPGQAPRLLINVGSRRATGIPDRFSGSGSGTDFTLTISRLEPEDFAVYYCQQGIMLPPTFGQGTKVEIK
notes: made as in WO 2012/020006; also called FAP clone 4B9; AlexaFluor647-labeled anti FAP antibody 4B9
EC50 [17]: 0.089 µg/mL

B8: anti-human FAP clone 212, hybridoma-derived murine antibody (antibody, V domains shown)
VH: EVLLQQSGPELVKPGASVKIACKASGYTLTDYNMDWVRQSHGKSLEWIGDIYPNTGGTIYNQKFKGKATLTIDKSSSTAYMDLRSLTSEDTAVYYCTRFRGIHYAMDYWGQGTSVTVSS
VL: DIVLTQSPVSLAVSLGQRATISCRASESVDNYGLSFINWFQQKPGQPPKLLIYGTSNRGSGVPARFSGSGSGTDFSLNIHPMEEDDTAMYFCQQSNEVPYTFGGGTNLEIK
notes: mu IgG1
binding result [18]: no binding (tested: 10 µg/ml)
